What all share (conditions): pH and temperature of Km assay not stated
Substrate in the data set “purified protein”: O=[N+]([O-])c1ccc(O[C@H]2O[C@H](CO)[C@H](O)[C@H](O)[C@H]2O)cc1
The experiment in a line: purified protein.

Substrate in data set [1]: OC[C@H]1O[C@H](OC[C@H]2O[C@H](OC[C@H]3O[C@H](O[C@]4(CO)O[C@H](CO)[C@@H](O)[C@@H]4O)[C@H](O)[C@@H](O)[C@@H]3O)[C@H](O)[C@@H](O)[C@H]2O)[C@H](O)[C@@H](O)[C@H]1O
Nature of the data set: Lineweaver-Burk plot, hydrolysis. Format: biochemical, Cucumis sativus.

Substrate in data set [2]: OC[C@H]1O[C@H](OC[C@H]2O[C@H](O[C@]3(CO)O[C@H](CO)[C@@H](O)[C@@H]3O)[C@H](O)[C@@H](O)[C@@H]2O)[C@H](O)[C@@H](O)[C@H]1O
Nature of the data set: Lineweaver-Burk plot, hydrolysis. The class given is biochemical, Cucumis sativus.

The results in this text go back to paper PMC7802950, “Characteristics and expression patterns of six α-galactosidases in cucumber (Cucumis sativus L.)” (PLoS ONE, 2021).

What is called Km is the substrate concentration at which the rate is half of its maximum.

B1: CsAGA3 (Cucumis sativus) (protein)
chain: MTIKPAVRISDGKLIVKDRTILTGVPDNVIATSGSSSGPVEGVFLGAVFEEEQSRQVVSLGTLRDVRFMACFRFKLWWMAQKMGDKGKEIPLETQFLLLETKDGSHLESDDGNEENQIIYTVFLPLIEGSFRACLQGNGQDELELCLESGDVDTKASSFTHSLFIHAGTDPFDAISDAMKAVKLHLNTFRLRHEKKFPAIVDYFGWCTWDAFYHEVTQDGVEAGLESLTAGGVPPKFVIIDDGWQSVGGDPQEEKEEGDEKQPKQPPLLRLTAIRENSKFQKKEDPTEGIKNIVNIAKNKYGLKYVYVWHAITGYWGGVRTGVKDMEEYGSSMQYPKVSKGVFENEPIWKNDALALQGLGLMNPKNVYKFYNELHSYLASAGIDGVKVDAQSILETLGAGLGGRVELTRQYHQALDASVARNFPDNGIIACMSHHTDAVYCAKQTAVVRASDDFYPRDPVSHTIHIAAVAYNTVFLGEIMVPDWDMFHSLHSAAEYHASARAISGGPVYVSDAPGKHNFELLRKLVLPDGSVLRATLPGRPTRDCLFSDPARDGVSLLKIWNLNKFTGVIGIYNCQGAAWNSQERKNTFHDTNSDAITGYVKGRDVHAISKVAADPDWNGDCAFYRHLSGDLVTLPYNSALPVSLKVLEFDIFTISPIKVLAPGFSFAPIGLIDMYNSGGAIEGLKYEVKGGAKLVEVDGASEGIETASERVENRSSELVAIVHLEVKGCGRFGAYSSAKPRQCIVDSSVVEFGYDSESGLLTLGIDKLPEGDLKYHDVKIEL
notes: coding region in pAcHLT, baculovirus/Sf9 insect cells; 6xHis tag removed by thrombin
Turning to B1, the Km is 1.24 ± 0.17 mM in the data set “purified protein”, 3.26 ± 0.76 mM in data set [1] and 22.47 ± 1.87 mM in data set [2].

B2: CsAGA1 (Cucumis sativus) (protein)
chain: MTVGAGITISDANLTVLGNRVLSDVHNNITLTAAPGGGVMNGAFIGVQSDQIGSRRVFPIGKLIGLRFLCAFRFKLWWMTQRMGCSGQEIPFETQFLVVETRDGSNIAGNGEEGDAVYTVFLPILEGDFRAVLQGNDNNELEICLESGDPSVDGFEGSHLVFVGAGSDPFETITYAVKSVEKHLQTFAHRERKKMPDILNWFGWCTWDAFYTDVTSDGVKKGLESFENGGIPPKFVIIDDGWQSVAKDAASTDCKADNTANFANRLTHIKENYKFQKDGKEGERIENPALGLQHIVSYMKEKHATKYVYVWHAITGYWGGVSSGVKEMEQYESKIAYPVASPGVESNEPCDALNSISKTGLGLVNPEKVFNFYNEQHSYLASAGVDGVKVDVQNILETLGAGHGGRVKLARKYHQALEASISRNFQDNGIISCMSHNTDGLYSSKRNAVIRASDDFWPRDPASHTIHIASVAYNSLFLGEFMQPDWDMFHSLHPMAEYHGAARAVGGCAIYVSDKPGQHDFNLLKKLVLHDGSILRAKLPGRPTKDCLFADPARDGKSLLKIWNMNDLSGVVGVFNCQGAGWCKVGKKNLIHDENPDTITGVIRAKDVSYLWKIAGESWTGDAVIFSHLAGEVVYLPQDASMPITLKSREFDVFTVVPVKELANDIKFAPIGLMKMFNSGGAVKEMNHQPGSSNVSLKVRGSGPFGAYSSSKPKRVAVDSEEVEFIYDEGGLITIDLKVPEKELYLWDIRIEL
notes: as for B1
B2: the Km in “purified protein” is 1.81 ± 0.39 mM; in data set [1] it was 3.76 ± 0.89 mM; in data set [2], 2.08 ± 0.51 mM.

B3: CsAGA2 (Cucumis sativus) (protein)
chain: MTVTPKITVNDGNLVVHGKTILTGVPDNIVLTPGSGLGLVAGAFIGATASNSKSLHVFPVGVLEGTRFLCCFRFKLWWMTQRMGTSGRDIPFETQFLLMESQGNDGEDPDNSSTIYTVFLPLLEGQFRAALQGNEKNEMEICLESGDNTVETNQGLSLVYMHAGTNPFEVITQAVKAVEKHTQTFLHREKKKLPSFLDWFGWCTWDAFYTDVTAEGVVEGLQSLSDGGAPPKFLIIDDGWQQIEAKPKDADCVVQEGAQFASRLSGIKENHKFQKNGNNYDQVPGLKVVVDDAKKQHKVKFVYAWHALAGYWGGVKPASPGMEHYDSALAYPVQSPGMLGNQPDIVVDSLAVHGIGLVHPKKVFNFYNELHSYLASCGIDGVKVDVQNIIETLGAGHGGRVTLTRSYHQALEASIARNFSDNGCIACMCHNTDSLYSAKQTAVVRASDDYYPRDPASHTIHISSVAYNSLFLGEFMQPDWDMFHSLHPTAEYHGAARAIGGCAIYVSDKPGNHNFDLLKKLVLPDGSVLRAQLPGRPTRDSLFNDPARDGTSLLKIWNMNKCSGVVGVFNCQGAGWCRITKKTRIHDESPGTLTTSVRAADVDAISQVAGADWKGDTIVYAYRSGDLTRLPKGASVPVTLKVLEYDLFHISPLKDITSNISFAPIGLVDMFNIGGAVEQVDIQVVEPIPEFDGEVASELTCSLPDDRPPTATITMKARGCGRFGLYSSQRPLKCSVDKVGTDFVYDDVTGLVTFEIPIPTEEMYRWNIEIEV
notes: as for B1
Regarding B3, the Km in the data set “purified protein” is 2.21 ± 0.28 mM; in data set [1], 5.23 ± 1.23 mM; in data set [2] it was 30.4 ± 2.85 mM.
